Source: publication PMC7537107 (Journal of neurochemistry, 2019)

B1: V5-tagged GluN2B C-terminal, cytosolic tail (amino acids 839-1484) (domain or fragment, human, UniProt Q13224 839-1484, looked up)
chain: EHLFYWQFRHCFMGVCSGKPGMVFSISRGIYSCIHGVAIEERQSVMNSPTATMNNTHSNILRLLRTAKNMANLSGVNGSPQSALDFIRRESSVYDISEHRRSFTHSDCKSYNNPPCEENLFSDYISEVERTFGNLQLKDSNVYQDHYHHHHRPHSIGSASSIDGLYDCDNPPFTTQSRSISKKPLDIGLPSSKHSQLSDLYGKFSFKSDRYSGHDDLIRSDVSDISTHTVTYGNIEGNAAKRRKQQYKDSLKKRPASAKSRREFDEIELAYRRRPPRSPDHKRYFRDKEGLRDFYLDQFRTKENSPHWEHVDLTDIYKERSDDFKRDSVSGGGPCTNRSHIKHGTGDKHGVVSGVPAPWEKNLTNVEWEDRSGGNFCRSCPSKLHNYSTTVTGQNSGRQACIRCEACKKAGNLYDISEDNSLQELDQPAAPVAVTSNASTTKYPQSPTNSKAQKKNRNKLRRQHSYDTFVDLQKEEAALAPRSVSLKDKGRFMDGSPYAHMFEMSAGESTFANNKSSVPTAGHHHHNNPGGGYMLSKSLYPDRVTQNPFIPTFGDDQCLLHGSKSYFFRQPTVAGASKARPDFRALVTNKPVVSALHGAVPARFQKDICIGNQSNPCVPNNKNPRAFNGSSNGHVYEKLSSIESDV
B2: HA-tagged spinophilin, full length (amino acids 1-817, fragment A) (natural protein)
chain: not shown

Experiments:
[1] = molecular target: B2; assay: co-IP
[2] = molecular target: B1; assay: co-IP

Binder | fold change of co-IP with IBMX/forskolin against vehicle (HA IP) [1] | fold change of co-IP with PKAc overexpressed against without (spinophilin IP) [1] | fold change of co-IP with IBMX/forskolin against vehicle (V5 IP) [2] | fold change of co-IP with PKAc overexpressed against without (GluN2B_(Tail) IP) [2]
B1 | 1.48 ratio to control | 2.14 ratio to control |  | 
B2 |  |  | 3.05 ratio to control | 10.6 ratio to control
